4 molecules from paper PMC9923923 (2023) can be followed below.

In experiment [1] the target is TLR4 (Homo sapiens, UniProt O00206). Kind of experiment: SPR.
Experiment [2] has as its target TLR4/MD2 complex (Homo sapiens, UniProt O00206). Kind of experiment: SPR. A general note: SPR reads the build-up and loss of mass on a sensor chip optically.

Chain of TLR4 (O00206 24-839): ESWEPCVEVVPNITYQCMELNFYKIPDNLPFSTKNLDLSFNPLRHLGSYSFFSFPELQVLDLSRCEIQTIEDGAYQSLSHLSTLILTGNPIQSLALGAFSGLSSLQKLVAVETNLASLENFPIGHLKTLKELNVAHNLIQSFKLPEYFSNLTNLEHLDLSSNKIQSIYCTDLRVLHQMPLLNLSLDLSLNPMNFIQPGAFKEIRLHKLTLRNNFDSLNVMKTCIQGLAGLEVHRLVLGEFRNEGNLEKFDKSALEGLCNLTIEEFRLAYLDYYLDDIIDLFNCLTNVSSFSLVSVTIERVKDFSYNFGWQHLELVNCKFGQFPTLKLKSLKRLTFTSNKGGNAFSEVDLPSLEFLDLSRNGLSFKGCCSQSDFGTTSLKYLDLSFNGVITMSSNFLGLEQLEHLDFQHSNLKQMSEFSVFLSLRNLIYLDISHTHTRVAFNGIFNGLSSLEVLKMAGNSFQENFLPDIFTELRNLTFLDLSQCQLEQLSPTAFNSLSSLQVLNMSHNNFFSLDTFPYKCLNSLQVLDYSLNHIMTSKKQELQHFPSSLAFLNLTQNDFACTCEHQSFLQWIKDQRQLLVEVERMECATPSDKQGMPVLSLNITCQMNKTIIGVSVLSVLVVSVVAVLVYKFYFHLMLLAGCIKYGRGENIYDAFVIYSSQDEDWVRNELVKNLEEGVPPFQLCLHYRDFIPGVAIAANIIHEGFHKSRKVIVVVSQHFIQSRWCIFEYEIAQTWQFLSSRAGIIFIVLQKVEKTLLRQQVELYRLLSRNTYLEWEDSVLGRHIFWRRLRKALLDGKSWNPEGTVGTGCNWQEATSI
Chain of TLR4/MD2 complex (O00206 24-839, chain 1 of 2): as the sequence (O00206 24-839) above
Chain of TLR4/MD2 complex (chain, as listed by the source, chain 2 of 2): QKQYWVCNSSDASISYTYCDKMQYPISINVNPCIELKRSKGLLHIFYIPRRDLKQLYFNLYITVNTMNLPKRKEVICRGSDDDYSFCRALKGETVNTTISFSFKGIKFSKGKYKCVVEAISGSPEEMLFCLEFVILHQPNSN

B1: eCIRP (protein)
chain: MASDEGKLFVGGLSFDTNEQALEQVFSKYGQISEVVVVKDRETQRSRGFGFVTFENIDDAKDAMMAMNGKSVDGRQIRVDQAGKSSDNRSRGYRGGSAGGRGFFRGGRSRGRGFSRGGGDRGYGGGRFESRSGGYGGSRDYYASRSQGGSYGYRSSGGSYRDSYDSYATHNE
modifications: 5 nM PS-OMe miR130 (value in text)
Regarding B1, the Kd – broadly, a measure of binding affinity in units of concentration – in experiment [1] worked out at 612 nM.

B2: eCIRP (protein)
chain: MASDEGKLFVGGLSFDTNEQALEQVFSKYGQISEVVVVKDRETQRSRGFGFVTFENIDDAKDAMMAMNGKSVDGRQIRVDQAGKSSDNRSRGYRGGSAGGRGFFRGGRSRGRGFSRGGGDRGYGGGRFESRSGGYGGSRDYYASRSQGGSYGYRSSGGSYRDSYDSYATHNE
modifications: 5 nM PS-OMe miR130 (value in legend)
In experiment [1], B2 yielded a Kd of 139 nM.

B3: eCIRP (protein)
chain: MASDEGKLFVGGLSFDTNEQALEQVFSKYGQISEVVVVKDRETQRSRGFGFVTFENIDDAKDAMMAMNGKSVDGRQIRVDQAGKSSDNRSRGYRGGSAGGRGFFRGGRSRGRGFSRGGGDRGYGGGRFESRSGGYGGSRDYYASRSQGGSYGYRSSGGSYRDSYDSYATHNE
As to B3, the dissociation constant (Kd) was 20 nM in experiment [2] and 69.7 nM in experiment [1].

B4: eCIRP (protein)
chain: MASDEGKLFVGGLSFDTNEQALEQVFSKYGQISEVVVVKDRETQRSRGFGFVTFENIDDAKDAMMAMNGKSVDGRQIRVDQAGKSSDNRSRGYRGGSAGGRGFFRGGRSRGRGFSRGGGDRGYGGGRFESRSGGYGGSRDYYASRSQGGSYGYRSSGGSYRDSYDSYATHNE
modifications: 5 nM PS-OMe miR130
In experiment [2], B4 displayed a Kd of 113 nM.
